Results reported in article PMC5431086 (Scientific Reports, 2017).
Positions of bridges follow the written chain, without caps; N, C: chain ends. No end group written: not given here.

Columns and labels:
Test in all cases: enzyme inhibition assay (panel of proteases); cyc-LHSPW tested against a panel of cancer-associated proteases (Fig. 5A); conditions not given
trypsin = biological target: trypsin
PSA = PSA (UniProt P07288 18-261)
KLK7 = KLK7 (UniProt P49862 23-253)
FAP = FAP (UniProt Q12884 1-760)
aminopeptidase A = biological target: T1, aminopeptidase A (UniProt Q07075 1-957)
T1 chain: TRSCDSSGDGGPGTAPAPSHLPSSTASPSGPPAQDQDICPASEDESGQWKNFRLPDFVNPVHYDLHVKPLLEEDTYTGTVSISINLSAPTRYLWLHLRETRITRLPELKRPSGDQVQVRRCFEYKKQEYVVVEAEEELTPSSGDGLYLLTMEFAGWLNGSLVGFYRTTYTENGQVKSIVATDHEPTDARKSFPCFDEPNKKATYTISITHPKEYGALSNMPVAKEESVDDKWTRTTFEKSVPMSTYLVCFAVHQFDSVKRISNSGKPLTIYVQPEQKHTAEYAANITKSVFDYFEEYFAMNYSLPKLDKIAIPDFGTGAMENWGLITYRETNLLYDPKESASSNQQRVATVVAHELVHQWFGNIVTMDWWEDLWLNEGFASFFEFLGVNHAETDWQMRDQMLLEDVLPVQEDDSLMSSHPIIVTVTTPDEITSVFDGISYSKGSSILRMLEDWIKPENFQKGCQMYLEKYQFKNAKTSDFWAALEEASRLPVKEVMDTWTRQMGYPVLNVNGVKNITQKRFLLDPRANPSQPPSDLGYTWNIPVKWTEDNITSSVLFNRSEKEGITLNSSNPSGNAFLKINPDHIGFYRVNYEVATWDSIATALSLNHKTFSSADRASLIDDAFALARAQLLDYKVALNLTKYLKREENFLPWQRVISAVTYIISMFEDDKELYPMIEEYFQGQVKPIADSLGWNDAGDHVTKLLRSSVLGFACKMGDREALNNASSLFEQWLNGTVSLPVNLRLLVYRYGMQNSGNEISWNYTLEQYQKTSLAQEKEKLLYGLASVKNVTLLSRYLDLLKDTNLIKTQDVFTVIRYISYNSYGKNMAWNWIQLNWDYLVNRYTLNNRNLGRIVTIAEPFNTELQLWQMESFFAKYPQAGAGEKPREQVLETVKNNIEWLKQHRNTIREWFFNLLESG

Measured: Ki

PSA, sequence (P07288 25-261): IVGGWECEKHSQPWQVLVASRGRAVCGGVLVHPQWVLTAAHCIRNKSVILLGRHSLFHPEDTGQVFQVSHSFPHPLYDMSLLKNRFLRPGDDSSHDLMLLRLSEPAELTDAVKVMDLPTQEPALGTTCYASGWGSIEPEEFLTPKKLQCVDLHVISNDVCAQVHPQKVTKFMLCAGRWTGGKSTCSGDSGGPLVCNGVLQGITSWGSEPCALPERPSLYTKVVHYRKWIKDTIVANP
KLK7, sequence (P49862 30-253): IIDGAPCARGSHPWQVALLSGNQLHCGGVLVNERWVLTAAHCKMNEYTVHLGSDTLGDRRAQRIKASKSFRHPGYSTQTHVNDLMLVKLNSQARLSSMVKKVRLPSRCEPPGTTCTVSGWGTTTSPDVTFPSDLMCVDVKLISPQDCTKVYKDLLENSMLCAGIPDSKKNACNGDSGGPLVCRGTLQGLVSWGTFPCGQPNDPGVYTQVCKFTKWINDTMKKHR
FAP, sequence (Q12884 26-760): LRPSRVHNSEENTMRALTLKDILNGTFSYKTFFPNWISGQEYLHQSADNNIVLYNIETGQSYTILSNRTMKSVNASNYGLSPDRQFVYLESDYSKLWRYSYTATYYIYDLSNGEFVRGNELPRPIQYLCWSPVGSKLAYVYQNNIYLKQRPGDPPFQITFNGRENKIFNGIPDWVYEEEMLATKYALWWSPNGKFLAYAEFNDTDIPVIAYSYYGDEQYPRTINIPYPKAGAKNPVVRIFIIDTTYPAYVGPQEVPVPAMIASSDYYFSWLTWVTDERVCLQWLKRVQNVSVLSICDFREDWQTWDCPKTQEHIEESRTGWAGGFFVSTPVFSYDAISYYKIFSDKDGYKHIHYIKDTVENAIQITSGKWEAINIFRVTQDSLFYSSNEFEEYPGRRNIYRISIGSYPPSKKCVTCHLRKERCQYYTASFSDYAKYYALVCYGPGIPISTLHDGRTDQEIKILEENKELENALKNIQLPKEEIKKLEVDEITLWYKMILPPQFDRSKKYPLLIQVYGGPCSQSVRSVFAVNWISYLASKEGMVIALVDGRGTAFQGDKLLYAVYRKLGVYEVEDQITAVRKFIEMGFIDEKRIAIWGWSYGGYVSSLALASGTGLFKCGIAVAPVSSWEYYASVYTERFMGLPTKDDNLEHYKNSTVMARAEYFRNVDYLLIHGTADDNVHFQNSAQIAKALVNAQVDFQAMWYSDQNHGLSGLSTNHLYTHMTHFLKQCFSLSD

CLHSPWC (disulfide 1-7) [cyc-LHSPW]
> 100 µM: all assays above
